T1: amphyphisin SH3 (AMPH_HUMAN), P49418
T1 chain: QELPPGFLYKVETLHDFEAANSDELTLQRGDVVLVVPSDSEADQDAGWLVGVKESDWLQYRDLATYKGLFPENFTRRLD


Experiments:
[1] = biological target: T1, amphyphisin SH3 (AMPH_HUMAN), P49418; test: SPOT array
[2] = biological target: endophilin SH3 (SH3G2_HUMAN), Q99962; test: SPOT array

| normalised SPOT signal, Boehringer light units (BLU); mean over the file's lines of this peptide [1] | normalised SPOT signal, Boehringer light units (BLU); mean over the file's lines of this peptide [2] | Binder |
| --- | --- | --- |
| 36 | 66 | PMEGIRRPDQALLP [O00253 27-40] |
| 70.2 | 191 | PNLLPHRPPLLVFP [Q9Y6X6 669-683] |
| 201 | 172 | PLISFPRPVKTTWL [Q9P2D6 185-198] |
| 24.6 | 0 | PNYDLRRPHQYLHP [O94991 899-912] |
| 5210 | 1200 | PMRLPRRPLRAFES [O14545 178-191] |
| 1910 | 3490 | PLPRFPRPPRALPA [P56730 61-74] |
| 1780 | 1220 | PLLHLTRPSRLEPG [P52849 207-220] |
| 8020 | 15800 | PLMHPARPFRVSNH [O60543 29-42] |
| 356 | 3740 | PPAPPLRPPGPPTG [Q9Y2W2 415-429] |
| 20500 | 12100 | PPAPPTRPPRRSDS [P35443 278-292] |
| 230 | 9160 | ASAPPRRPRPPPPS [Q9UEF7 3-16] |
| 680 | 10400 | PLLPPKRPLSSSHE [Q9H6X0 119-132] |
| 4680 | 744 | PLPAPRRPKVNSIL [Q9H3X8 431-444] |
| 28.7 | 9.5 | PLRHFKRPAYASSS [Q14123 658-671] |
| 12.1 | 83.3 | PKRGPRRPKYSPPR [Q14669 1006-1019] |
| 421 | 200 | ARVPLGRPRRRPRA [O60331 5-18] |

| normalised SPOT signal, Boehringer light units (BLU); mean over the file's lines of this peptide [1] | normalised SPOT signal, Boehringer light units (BLU); mean over the file's lines of this peptide [2] | Binder |
| --- | --- | --- |
| 77.9 | 3470 | PPALPPKPPKPTTV [AAH30815 33-47] |
| 315 | 453 | PPAPLRRPLAVLHA [Q96BU4 174-187] |
| 4940 | 18500 | PLRLPPRPPGPRLA [O95822 14-28] |
| 21.6 | 60.7 | PKTYLRRPEASSPA [Q92932 113-126] |
| 91.3 | 155 | PNIKISRPLKVLLT [Q9NPB9 231-244] |
| 314 | 61.3 | PKTPPRRPVPVADS [Q9HA84 52-65] |
| 1010 | 464 | PMAPIRRPISAESA [P53675 58-71] |
| 37.6 | 48.9 | PKSVLKRPVTSEEL [Q9HA07 306-319] |
| 88.3 | 2510 | PPALPPKPPKPMTS [Q92569 33-47] |
| 131 | 398 | PNLIPRRPSPYEKT [O95450 1177-1190] |
| 2870 | 648 | PMVPPRRPWTLVNW [Q9NRZ5 298-311] |
| 21.2 | 435 | ASAPPQRPPSGPEG [Q96LW7 145-159] |
| 405 | 1570 | PNATPRRPLQELRR [Q9HCF2 2-15] |
| 124 | 4320 | PPALPPKPPKAKPA [O00459 298-312] |
| 2100 | 4850 | PLRPILRPRKYPNR [P11161 316-329] |

From paper PMC314469, “Protein Interaction Networks by Proteome Peptide Scanning” (PLoS Biology, 2004)
